T1: APRIL (Acro Biosystems, Cat: APL-H52D1) (UniProt O75888 115-250, limits assumed)
T1 construct: also called ARPIL; A proliferation-inducing ligand
T1 sequence (looked up): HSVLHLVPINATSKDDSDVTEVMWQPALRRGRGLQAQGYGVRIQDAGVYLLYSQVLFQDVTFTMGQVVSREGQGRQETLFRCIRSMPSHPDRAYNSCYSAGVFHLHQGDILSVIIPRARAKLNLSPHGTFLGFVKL

T2: type I interferon (IFN) receptor subunit 1 (IFNAR1) (human, UniProt P17181 28-557)
T2 sequence (looked up): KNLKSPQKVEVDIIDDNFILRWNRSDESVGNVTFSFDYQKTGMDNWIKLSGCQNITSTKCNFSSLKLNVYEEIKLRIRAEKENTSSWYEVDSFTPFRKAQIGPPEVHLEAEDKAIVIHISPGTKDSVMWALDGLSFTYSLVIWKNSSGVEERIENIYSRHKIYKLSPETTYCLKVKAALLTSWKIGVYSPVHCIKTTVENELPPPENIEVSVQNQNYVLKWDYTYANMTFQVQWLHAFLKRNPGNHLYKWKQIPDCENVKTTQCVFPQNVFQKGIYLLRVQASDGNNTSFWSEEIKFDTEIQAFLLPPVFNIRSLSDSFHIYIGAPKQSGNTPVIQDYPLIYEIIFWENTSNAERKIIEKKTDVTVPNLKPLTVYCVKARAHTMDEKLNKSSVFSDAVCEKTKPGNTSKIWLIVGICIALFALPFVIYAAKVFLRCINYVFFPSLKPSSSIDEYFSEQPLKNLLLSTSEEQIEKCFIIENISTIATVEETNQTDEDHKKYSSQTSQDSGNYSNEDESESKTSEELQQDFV


Experiments:
[1] = target: T1, APRIL (Acro Biosystems, Cat: APL-H52D1); experiment: ELISA, APRIL coated, anti-human Fc-HRP
[2] = target: T2, type I interferon (IFN) receptor …; experiment: cell-based or functional assay
[3] = target: T2, type I interferon (IFN) receptor …; experiment: cell-based or functional assay; remark: listed apart in the source
[4] = target: T1, APRIL (Acro Biosystems, Cat: APL-H52D1); experiment: ELISA, APRIL coated, anti-human Fc-HRP, OD450
Method: The capabilities of fusion proteins B606401, B637302, B746201, and B805201 to bind to BAFF and APRIL were assessed by ELISA as follows:
BAFF (PeproTech, Cat: 310-13) or ARPIL (Acro Biosystems, Cat: APL-H52D1) was diluted to 1 μg/mL with PBS, and a 96-well plate was coated with the dilution overnight at 4° C. The plate was washed with PBST and blocked with Blocking Buffer (PBST containing 1% BSA) at 37° C. for 1 h. The plate was tapped. The test antibodies were diluted with Blocking Buffer. Incubation was performed at 37° C. for 1.5 h. The plate was washed with PBST. An HRP-mouse anti-human Fc antibody (GenScript, Cat: A01854-200) was diluted with Blocking Buffer. Incubation was performed at 37° C. for 40 min. The plate was washed with PBST. 100 μL of TMB substrate solution (Biopanda, Cat: TMB-S-003) was added, and color development was performed at 37° C. for 3 min. 100 μL of ELISA stop solution (Solarbio, Cat: C1058) was added. OD450 was measured.
The EC₅₀ value for the capability of B637302 to bind to APRIL decreased to 1/7 to ⅙ of that of telitacicept.

[5] = target: recombinant human BAFF (R&D cat: 7537-BF-025/CF) (human, UniProt Q9Y275 134-285, limits assumed); experiment: cell-based or functional assay

Row | EC50 relative to that of telitacicept [1] [ratio] | IC50, inhibition of IFN-α-induced in vitro differentiation of B cells into plasma cells [2] [nM] | IC50 (nM), inhibition of the activity of type I interferons (IFN-β, HEK-Blue IFN-α/β cells) [3] [nM] | Emax [4] [nM] | Flow cytometry proliferating B cell proportion (%), mean, BAFF-induced, drug at 10 nM [5] [%] | Flow cytometry proliferating B cell proportion (%), mean, BAFF-induced, drug at 100 nM [5] [%] | Flow cytometry proliferating B cell proportion (%), mean, BAFF-induced, drug at 1000 nM [5] [%] | Binder
1 | 0.333 | 1.9 | 1.64 | 2.8 | – | – | – | B746201 (other, Fusion protein of anifrolumab, TACI-19-16 and BCMA-ECD-2) heavy: EVQLVQSGAEVKKPGESLKISCKGSGYIFTNYWIAWVRQMPGKGLESMGIIYPGDSDIRYSPSFQGQVTISADKSITTAYLQWSSLKASDTAMYYCARHDIEGFDYWGRGTLVTVSSASTKGPSVFPLAPSSKSTSGGTAALGCLVKDYFPEPVTVSWNSGALTSGVHTFPAVLQSSGLYSLSSVVTVPSSSLGTQTYICNVNHKPSNTKVDKRVEPKSCDKTHTCPPCPAPEFEGGPSVFLFPPKPKDTLMISRTPEVTCVVVDVSHEDPEVKFNWYVDGVEVHNAKTKPREEQYNSTYRVVSVLTVLHQDWLNGKEYKCKVSNKALPASIEKTISKAKGQPREPQVYTLPPSRDELTKNQVSLTCLVKGFYPSDIAVEWESNGQPENNYKTTPPVLDSDGSFFLYSKLTVDKSRWQQGNVFSCSVMHEALHNHYTQKSLSLSPGKGGGGSGGGGSGGGGSMLQMAGQCSQNEYFDSLLHACIPCQLRCSSNTPPLTCQRYCSTSCREEQGEFYDHLLRDCISCASICGQHPKQCAAFCE light: EIVLTQSPGTLSLSPGERATLSCRASQSVSSSFFAWYQQKPGQAPRLLIYGASSRATGIPDRLSGSGSGTDFTLTITRLEPEDFAVYYCQQYDSSAITFGQGTRLEIKRTVAAPSVFIFPPSDEQLKSGTASVVCLLNNFYPREAKVQWKVDNALQSGNSQESVTEQDSKDSTYSLSSTLTLSKADYEKHKVYACEVTHQGLSSPVTKSFNRGEC
2 | 0.333 | 6.21 | 1.63 | 2.85 | 20.4 | 24.3 | 15 | B805201 (other, Anifrolumab with TACI-19-16 at the C-terminus of the heavy chain; also called B80521) heavy: EVQLVQSGAEVKKPGESLKISCKGSGYIFTNYWIAWVRQMPGKGLESMGIIYPGDSDIRYSPSFQGQVTISADKSITTAYLQWSSLKASDTAMYYCARHDIEGFDYWGRGTLVTVSSASTKGPSVFPLAPSSKSTSGGTAALGCLVKDYFPEPVTVSWNSGALTSGVHTFPAVLQSSGLYSLSSVVTVPSSSLGTQTYICNVNHKPSNTKVDKRVEPKSCDKTHTCPPCPAPEFEGGPSVFLFPPKPKDTLMISRTPEVTCVVVDVSHEDPEVKFNWYVDGVEVHNAKTKPREEQYNSTYRVVSVLTVLHQDWLNGKEYKCKVSNKALPASIEKTISKAKGQPREPQVYTLPPSRDELTKNQVSLTCLVKGFYPSDIAVEWESNGQPENNYKTTPPVLDSDGSFFLYSKLTVDKSRWQQGNVFSCSVMHEALHNHYTQKSLSLSPGKGGGGSGGGGSGGGGSSTSCREEQGEFYDHLLRDCISCASICGQHPKQCAAFCE light: EIVLTQSPGTLSLSPGERATLSCRASQSVSSSFFAWYQQKPGQAPRLLIYGASSRATGIPDRLSGSGSGTDFTLTITRLEPEDFAVYYCQQYDSSAITFGQGTRLEIKRTVAAPSVFIFPPSDEQLKSGTASVVCLLNNFYPREAKVQWKVDNALQSGNSQESVTEQDSKDSTYSLSSTLTLSKADYEKHKVYACEVTHQGLSSPVTKSFNRGEC
